In the DeepSol protein solubility set:

test: soluble on expression in E. coli; label from the status in PepcDB or PDB records

Sequence	soluble on expression in E. coli
MGSDKIHHHHHHMSSLPLQKSLYPLLRPLGAAYRVLMRARRRRYENGAACGTDVPCVSVGNIGWGGSGKTPVVQWLLQWAAVHGLHAVVLTRGYKASPPGLPYVVTPQSSAAHAGDEPLMLARSCPQATVVVDPVRSRSARWAQERLAPDFFVLDDGFQHVQVARDTDLVLLKKDDLHAEWGRVLPAGSWREGPEALSRAAAFCIKCGSGEFSGLVPDFENRLGSFGVPVFGFSLRPGALIPVCGAHEGAQLPAGAPYVLFSGVGDPAQVAVTVSSFLGYDPVRHHVFADHHGYTQADMDRMAGYGLPLVCTPKDAVKLTAPCGVPVWTLSLETNFHSVWNAQPPAGQAGEGFAQWWQCRWQRLAGLR	not soluble
MIRVHSYESMGTFDGPGLRLVVFLQGCNFRCLYCANPDTIDTKGESTETAIDEIVRMAVSQKAFFGKKGGVTFSGGEPTLQAKALIPLFQRLKEQNIHICIDTNGSIWNEEVEELLKWTDLVLLDIKEFNNVRHRQLTERSNEQTIRTAEWLEKNGKPFWLRYVLVPGYSSFEEDIRALGEHFKNYHMIQRVEILPYHTLGVHKYEAMGKEYKLNGIKENTLEQLETAKTLFGEYFNTVYLN	not soluble
MNQQTYAFTLEMEVRDYECDMQGIVNNSVYQNYLEHARHVYLKTVGIDFKEFTERGINLVVVRAELDYKLPLQSGDRFRVGLNMVRQSPLRFAFYQDILRLPDMKPAVKARIIGTALNGRGRPEIPAELEALMQPGELEHHHHHH	soluble
MKVVVIGGGWSGVAAAIEAKKMGADVVLFEKTDLLLGLGNVGGIMRNNGRYTASEELIAMGGGDLINITDKVSRHKDIPFPGHEHAWLYDVNLVEGEVKRYVESLGIETKMVSRIIDIKQEDNKILGVYTSDGQYYNGDVFIETTGSTGPMGNCLRYGNGCSMCILRCPSFGPRISISSRCGVEDIQGERVGDELGAFSGSCKLAKETLSEEIRKELEEKGCVVLKIPKEDVNYDKLNTKVCQQYALKEFAENVVLLDTGHAKLMTTYYPLEKLRKIKGLENAKYVDPYAGGKGNSIRYLSVAPRDDNMKVKGVTNLFCAGEKSGLFVGHTEAIVTGTLAGHNAVRHALGIPYLILPRATVLGDIIAFANEESQSREGKKNRYTFAGSVYFNRMKELGLYTIDKDEIQKRVAQLNLDGVFSKKLMLEHHHHHH	not soluble
MGSDKIHHHHHHMPFRRPCAINRPPLTSGCQGHPLSSRRAAQGPGGFFYRHKDMAMTQKRALGLDFGTTNTVMALSDTGSASHSMRFTSSAGTDDSMRTALSFMKDAGLGAAALHVEAGQAAIRQFIDNAGDCRFLQSIKTFAASPLFQGTLIFAKRQSFEDLMEVFLRKLKTYAGSEWPGDVSTVIAGRPVRFAGSNPDETLALARYNEALTRAGFPEIHYVYEPVAAAYYFAQSLKKDANVLVADFGGGTTDYSLIRFETHAGKLSATPIGHSGVGVAGDHFDFRMIDNLVSPEIGKGSKFKSFDKVLDVPSGYYVNFGRWNQLSIFKTSKEFTDLKSLVRSALEPDKLELFIDLVEHDEGYPLYQAISATKMALSSAQEAEFNFSPLGKAGRKMVKRSDFNNWIADDLAKIEGALDEVLEKTKVAPEAIDKVFLTGGTSFVPAVRELFTRRFDADRIESGGELLSIAHGLAMIGESGDIQRWTA	not soluble
MSLLDIIFPPNNNDDDFYGQHFSLIDSIIVKVAQDSNLSQSLRVYQYLYSWRLFGCMVAVVNNNKTLELGDKRGAIEALYEFITRFRIENPTGDVERKVKLKILEIYMIILNLLKSFENNQDQWFLKTNSYKETTTTRRREGHHHHHH	soluble
MTNFATTDDVILLWRQLSVDEIKRAEALLETVSDTLRLEASKVGKNLDEMILETPYFATVLKSVTVDIVARTLMTATQGEPMSQESQSALGYTWSGTYLVPGGGLFIKDSELKRLGLKKQRYGGIELYGEIERNNSYFSRQDD	not soluble
MSLRESCKKDLSAGESIRKTRRISVMRSASGNETFGVICRTLYGDFIQFSTKQIVVMSTLFRSLSMSSSAGDSNLFTGNSALKNDSVVAGKPEWAQNSRRRVIPSHLAPKKKTGFHLSSSVSTRKSGGDKKDVFQAENGGEFNLLSFGTNQKRLGTGSFDRVNANSSFFDTSFAGDLTRFDDAVNSSKTQDDFLVYTNDEDMPPSRSIYDLNDEVLISLKSLQNNNEDKTSDANDPKNFRNIFVRDAPKASPSEDSNDQAKQLSNGELAILVFGYPETMANQVIAYFQEFGTILEDFEVLRKPQAMTVGLQDKQFVPIFSGNSWTKITYDNPASAVDALLENGAVFNGVLLGVIPYTKDAVERLQKRKLTSSEDIGSGITTAAAEGHHHHHH	soluble
MFDLPVETEEQRRNYRIFRKELIQEGFVMIQYSIYVRVCPSREFANRIENRIKKNLPLEGNVRLLCVTEKQYDDMKLLVGSRQTSETAIGTERLIIILEHHHHHH	not soluble
MSLHIVVIGAGIVGASTALELQRDGHRVTLVEPGQPGGPQAASFGNGAWLSPASVVPMSMPGLWKKVPGYLMDPLGPLTIRWTALPALAPWLLRFIAAGATVPKVEATARALKALLSDAPERHTALAAEAGLADLVERKGLLYAYPDRAAFEAEALAWRLRRDNGIVWRELDGPALKAFEPTLHPRYGFGALVEAGAHCVDPGAYVAGLVAFAESRGLTRIEAAATGFDIVGGRLQAVRTAKGSVPCDRAVIAAGIHSRALAAEAGDKVSLASERGYHVVVATPESGPHLPVMPSDGKMANTPTRAGLRASGQVELAAVAAAPNWKRADVLLDHLLNTYPGLPRQVPEARLSRWLGHRPSTPDGVPVIGQASACTDIVHAFGHGHVGLASGPITGRLVADIIAGRPPERDIRPYAAARFRREGHHHHHH	soluble
GPGSMINWCEGCSNRNNNTQPELVLGNETFVTHGVAAPDKGSKYPLGGPFRLRESRTGNYITDKELFQDHWTLLYFGFSKCAEVCPSTLRFITDVMKACDEKLAGDKNLSTEAARLQAVFLSVDSRRDTPEVLEGFVSKYDPRVRGLTGTSKEIEQAARAWRVYYSSIDETDEEKSAREAKGVPMVGADDDTYQLDHSSAIYLVGVDGKLKDFFFKEMGVADAVGRLEVHLQDVYGFKDTRG	not soluble
MGAFDRVKAQVASDSKWTSAPYKGFVAGSPSNTYIDIVSTAFEDATNTMNFARHSKYDEMYSPYLGSFRERHNYTSIAPSLCINKTNRAIEYDLAPHKAYNPRQSEWLLEKDKKYRVRGARNLIYTKSASDISLPPLTRRTFTVPTDTLRHQNQFLYWNGRALGLDYVAPFLRREDYSRHEDRRYQRIYWSPHFIDLLPSCRHSAHLMLSAY	not soluble
MVPKTATSTETKTITRIIHYVDKVTNQNVKEDVVQPVTLSRTKTENKVTGVVTYGEWTTGNWDEVISGKIDKYKDPDIPTVESQEVTSDSSDKEITVRYDRLSTPEKPIPQPNPEHPSVPTPNPELPNQETPTPDKPTPEPGTPKTETPVNPDPEVPTYETGKREELPNTGTEANATLASAGIMTLLAGLGLGFFKKKEDEKLEHHHHHH	soluble
MKAQIIHSFGDSSVFQLEEVSKPKLLPGHVLIDVKATSVNPIDTKMRSGAVSAVAPEFPAILHGDVAGIVIEVGEGVSKFKCGDEVYGCAGGFKETGGALAEFMLADARLIAHKPNNITMEEAAALPLVAITAWESLFDRANIKSGQNVLIHGATGGVGHVAIQLAKWAGANVFTTASQQNKMEIAHRLGADVAINYKEESVQESVQEYVQKHTNGNGFEVIFDTVGGKNLDNSFEAAAVNGTVVTIAARSTHDLSPLHAKGLSLHVTFMALKILHTDKRNDCGEILTKITKIVEEGKLRPLLDSKSFTFDEVAQAHEYLESNKAIGKIVLKNVW	soluble
MSLKINRIVNEGFMKTMLAAYLLGNSTVDLREVAVPTPGINQVLIKMKSSGICGSDVHYIYHQHRATAAAPDKPLYQGFINGHEPCGQIVAMGQGCRHFKEGDRVLVYHISGCGFCPNCRRGFPISCTGKGKAAYGWQRDGGHAEYLLAEEKDLILLPDALSYEDGAFISCGVGTAYEGILRGEVSGSDNVLVVGLGPVGMMAMMLAKGRGAKRIIGVDMLPERLAMAKQLGGMDHGYLATTEGLPQIIAELTHGGADVALDCSGNAAGRLLALQSTADWGRVVYIGETGKVEFEVSADLMHHQRRIIGSWVTSLFHMEKCAHDLTDWKLWPRNAITHRFSLEQAGDAYVLMASGKCGKVVINFPDEGHHHHHH	not soluble
MASSSSSSEHKVFLSFRREDTGRTFVSHLYRSLDQKEIRTYKFENQQAGDGKRISSEVKQAINESRIAVVVISENYVSSVLCLDVLAKIIERLPLIKIETVFYEVDPGDLTRPTGKFADDFRRHEARENRRTVNRWRDALDQLVSITNSNFCSRNWEDDSKMIDDLIIRLINIYFSKYYTPDVDIIAETTVGLDASVLGLMTDIDMKYKLNSLSGSVESGFGLERYALEATSVMDDMSNESPSPTSDDSNGLVGMYRHKKAVYGLLDLESKNQVRTIGIWGFQGVGKTTLAECVFDDISSHFQHYCFLTNANKIYQNRISPSLLKHLTRRRSSEDIFDAIKPSLVNRKVLFVVDGVDATYNEQFNDAMKVTRWLGPGSRIIMTSRFKSSLKFGGAKYEMECLRYEEALQLFSLYAFKKTYPLIGFELFSIRAVHFAGRLPLSLKVLGSFLYDKDEESWKRTLHKLEASQDNDRRYVSNYIGAGEYLPRRQIELEQYVSPDEEEYSPSYIMSL	soluble
MPLTDPAKLQIVQQRVFLKKVCRKCGALNPIRATKCRRCHSTNLRLKKKELPTKKG	soluble
MRGFLKFAILAAVLLALAYGDDEDEEASELERRRIRNCPEVTFKRMTGCVWEFGRFLKKVLFLDLEQRTLDRFRKSCLSMAECFDLIECKETGKFSRGKRIKDSCDVMNYLSKDFVPCLKRLERLDPAPTCFNKWKPFSDLNEVGPDTTPEEMEELCKNMLGKDNCMKDLVSRTCGGVMSQELVDRFEATSVFKQCDAD	not soluble
GLLAFFMVIAVSVGGLTQIVPLFFQDVTNKPVEGMKPRTALEVEGRDIYIREGCVGCHSQMIRPFRAETERYGHYSVAGESVWDHPFLWGSKRTGPDLARVGGRYSDDWHRAHLYNPRNVVPESKMPSYPWLVENKLDGKDTAKKMEVLRTLGTPYTDADIAGARDAVKGKTEMDAIVAYLQGLGT	not soluble
MAALIDTGIFFGFYSLKDVHHMDSVAIVVHAVEGKWGRLFVTNHILDETLTLLKYKKLPADKFLEGFVESGVLNIIYTDDEVERKALEVFKARVYEKGFSYTDAISEVVAEELKLKLISYDSRFSLPTIGRDYWKSLDESERKRISAILREKGIDG	soluble
DDSAVTLFIPGYAGNRFSFGGMLQRFTAGGIANKSLVVMIDRHNHPHVTGELDAYRPMVQLIFATPRVAVRQQAAGVLAVVQYLIAHEHVQTINLVAHSMGGVVLFQYLTTAAKLVNLPEVRKVVTIGAPFNDSEVGQNTYPIENHPLTATGPTKTTPVYNYFLRTLQRLPNTISYLNIAGNIGDAAQSDGAVALNSALSLRFLLRPTRDQYQEFVVHGKNARHSRLHENYEVDRQIVQFFISRSHKKGCW	not soluble
MGSDKIHHHHHHMRLILYLGKGGVGKTTTSAATAVRAAELGYRTLVVSTDVAHSLADALDTPLGSLPTQITERLWGQEINVLDEVREHWGELRVYLSNLLRRRGVDEVAAEELAIIPGMEEVVSLLHIRRQAREGNFDVVIVDAAPTGETVRLLTMPETFQWYAARVMDWEPTTLKVARPLVKQLVPATDVFAKLERLTKGVEALRATLTDPQISSYRLVVNPERMVIKEAQRASTYLALFGYPVDGVVLNRVLPVDQVEGAFMQELARIQQGYRQMVYDLFRPLPIWESPYFARDLAGIEDLAMVGRRLFGDDDPVKVHFIGKTQEIVKQGDEYVLRLPLPHVEIGKVSMTKRGDELFIEIGNFRRDMLLPTTLAERPARRAYFRNGVLEVFFGPPETLSLKTDAQEESTPS	not soluble
QPALPEAMYQLLSGAHYRTSPLDLRRMMDAPGQAFRCARTGGAVAGALWLVAEGGLSPELSRAVWAGFRRPRGNLVAQSLAAHGGSPLAATLRGLRVSRIAVHPTRQREGLGRKMIADIAADAAGYDYLSVSFGYTAELWRFWQRCG	not soluble
